The labels stand for the following.
T1: mouse PRLR with an HA tag on HEK293 cells (mouse, UniProt Q08501 20-608)
T1 construct: whole, on cells; also called HEK293/mPRLR; rodent PRLR; not shown: HA tag
T1 sequence (looked up): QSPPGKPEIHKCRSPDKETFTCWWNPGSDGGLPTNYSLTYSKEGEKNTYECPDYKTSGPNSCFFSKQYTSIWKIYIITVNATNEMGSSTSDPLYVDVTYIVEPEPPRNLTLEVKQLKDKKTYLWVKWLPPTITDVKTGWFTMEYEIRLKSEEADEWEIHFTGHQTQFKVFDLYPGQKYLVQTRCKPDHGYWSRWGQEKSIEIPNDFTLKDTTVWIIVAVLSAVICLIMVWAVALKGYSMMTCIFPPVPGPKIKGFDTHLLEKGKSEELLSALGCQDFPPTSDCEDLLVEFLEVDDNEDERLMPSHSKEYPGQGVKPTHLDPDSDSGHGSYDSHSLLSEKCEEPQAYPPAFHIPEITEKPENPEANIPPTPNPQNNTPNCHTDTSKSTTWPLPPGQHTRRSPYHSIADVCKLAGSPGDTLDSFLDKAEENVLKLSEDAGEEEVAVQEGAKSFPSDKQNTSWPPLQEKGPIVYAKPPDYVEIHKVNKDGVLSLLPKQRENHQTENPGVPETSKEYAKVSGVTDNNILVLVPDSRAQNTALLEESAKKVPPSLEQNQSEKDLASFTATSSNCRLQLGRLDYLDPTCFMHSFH

B1: H1H6781P (antibody, human IgG1, V domains shown)
VH: EVQLVESGGDLVQPGESLRLSCTASGFTFNSYEMNWVRQAPGKGLEWVSYISSSGGTKYYVDSVKGRFTISRDNAKKSLYLQMNSLRADDTALYYCARLNGVDVFDIWGQGTMVTVSS
VL: DIQMTQSPSSLSASVGDRVTITCRASQDIFNYLAWFQQKPGKVPELLISAASTLQSGVPSRFSGSGSGTYFTLTISSLQPEDIATYYCQRYNSAPLTFGGGTKVEIK
B2: H1H6785P (antibody, human IgG1, V domains shown)
VH: EVQLVESGGGLVQPGGSLRLSCAASGFTFSSYEMNWVRQAPGKGLEWISYISSRGGTIYYADSIKGRFTIYRDNARNSLYLQMNSLRAEDTAIYYCARLSGVDIFDIWGQGTMVTVSS
VL: B1 VL with D28G, F30S, F36Y, E45K, S49Y, A50F, S65G, Y70D, I83V
B3: H1H6790P (antibody, human IgG1, V domains shown)
VH: EVQLVESGGGLVQPGGSLRLSCAASGFTFSSYAMTWVRQAPGKGLEWVSAITGSVGNTYYADSVKGRFTISRDNSKNTLYLQMNSLGAEDTAEYYCAKGAGMTTNWYLDLWGRGTLVTVSS
VL: DIVMTQSPDSLAVSLGARATINCKSSQSVLYSSNNQNYLTWYQQKPGQPPKLLIKWASTRESGVPDRFSGSGSGTDFTLTISSLQAEDVAVYYCQQYASSPYTFGQGTKLEIK
B4: H1H6807P (antibody, V domains shown)
VH: QVQLVESGGGVVQPGRSLRLSCAASGFTFSDYNMHWVRQAPGKGLEWVAVIWYDGSNKHYADSVKGRFTISRDNSKNTLYLQMNSLRAEDTAVYYCARDGFTIFGMVLDYWGQGTLVTVSS
VL: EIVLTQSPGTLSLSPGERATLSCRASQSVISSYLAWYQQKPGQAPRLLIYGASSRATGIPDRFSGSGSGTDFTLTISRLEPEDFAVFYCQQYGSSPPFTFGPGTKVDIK
B5: H1H6783P (antibody, human IgG1, V domains shown)
VH: QVQLQQSGPGLVKPSQTLSLTCAISGDSVSSNTFAWNWIRQSPSRGLEWLGRTYYRSKWYIDYAESVKSRITITPDTSKNQFSLQLNSVTPEDTALYYCAGGYTYAPRGAFDIWGQGTMVTVSS
VL: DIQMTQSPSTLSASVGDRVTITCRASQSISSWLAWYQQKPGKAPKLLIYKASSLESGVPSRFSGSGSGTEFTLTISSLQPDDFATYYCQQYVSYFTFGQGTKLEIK
B6: H1H6975N (antibody, human IgG1, V domains shown)
VH: EVHLVESGGGLVQPGGSLRLSCAASGFTFSSYEMNWVRQTPGKGLEWISHISSRSVIIYYADSVKGRFTISRDNAKNSLFLQMNSLRAEDTAVYFCAGITIFGIPEYWGQGTLVTVSS
VL: EIVLTQSPATLSLSPGERATLSCRASQSVSSYFAWYQQKPGQAPRLLIYDASSRATGIPTRFSGSGSGTDFTLTISSLEPEDFAVYYCQQRSSWPITFGQGTRLEIK
notes: Tested with human IgG1 Fc (H1H); also called H1H6975P
B7: H1H6765P (antibody, human IgG1, V domains shown)
VH: EVQLVESGGGVVRPGGSLRLSCVGSGFSFDDHGMNWVRQGPGKGLEWVSGFNWNGGSTNYAESVKGRFTISRDNARNSLFLQMNSLRAEDTALYYCVRGRSGWFNDAFDVWGPGTMVTVSS
VL: EIVLTQSPGTLSLSPGERATLSCRASQTINSNYLAWYRQKPGQTPRLLIYGTSSRATGIPDRFSGSGSGTDFSLTISRLEPEDFAVFYCQQYAGLPTFGPGTKVDIK
B8: H1H6953N (antibody, human IgG1, V domains shown)
VH: EVQLLESGGGLVQPGGTLRLSCAASGFTFSAYAMSWVRQAPGKGLEWVSSINVRAGDTYYADSVKGRFTISRDNSKNTLFLLMNSLRAEDTAAYYCAKARYSSNWGFDFWGQGTLVTVSS
VL: DIVMTQSPDSLTVSLGARTTINCQSSQTILHSSNNHNYLAWYQQKPGLPPKLLIYWSSTRESGVPDRFSGSGSGTDFTLTISSLQAEDVAIYYCQQYSNTPYTFGQGTKLEIN
notes: Tested with human IgG1 Fc (H1H)
B9: H1H6782P (antibody, human IgG1, V domains shown)
VH: EVQLVESGGGLVQPGRSLRLSCAASGFTFDDYAMHWVRQAPGKGLEWVSGIIWNSGHIGYGDSVKGRFTISRDNAKKSLYLQMNSLRAEDTALYYCARDSGRYQSYFDYWGQGTLVTVSS
VL: DIQMTQSPSTLSASVGDRVTITCRASHIISSWLAWYQQKPGKAPKVLIFKASSLESGVPSRFSGSGSGTEFTLTISSLQPDDFATYYCQQYNTYSRTFGQGTKVEIK
B10: H1H6774P (antibody, human IgG1, V domains shown)
VH: EVQLVESGGGLAQPGGSLRLSCVASGFTFSTYWMSWVRQAPGKGLDWVGNIKQDGSEQNYVDSVRGRFTISRDNAKNSLFLQMNSLRAEDTGVYYCATLLTKGDYWGQGTLVTVSS
VL: DIQMTQSPSSLSASVGDSVTITCRASQDISNYLDWFQQKPGKAPKSLIYAASILQGGVPSRFSGSGYGTDFTLTISSLQPEDFATYYCRQYKTYPFTFGPGTKVDIK
B11: H1H6959N2 (antibody, human IgG1, V domains shown)
VH: EVQLVESGGGLVQPGRSLRLSCAASGFTFDDYAMHWVRQAPGKGLEWVSGISWHSGIIGYADSVKGRFTISRDNAKNSLYLQMNSLRTEDAALYYCAKIGSYFYFDSWGQGTLVTVSS
VL: EIVLTQSPGTLSLSPGERATLSCRASQSVSSNYLAWYQQKPGQAPRLLIYGASSRATGIPDRFSGSGSGTDFTLTISRLEPEDFAVYYCQQFGSSGYTFGQGTNLEIK
notes: as for B8
B12: H1H6966N (antibody, human IgG1, V domains shown)
VH: QVQLVQSGAEVQKPGASVKVSCKVSGYTLTALSIHWVRQAPGKGLEWMGNFDPGDGETIHAQKFQGRVTMTGDTSTDTAYMELSSLRSEDTAVYYCVGVTFDYWGQGTLVTVSS
VL: EIVMTQSPATLSVSPGERATLSCRASQSVASNLAWYQQKPGQAPRLLLYGASTRATGIPARFSGSGSGTEFTLTISSLQSEDFALYYCQHYNNWPLTFGGGTKVEIK
notes: as for B8
B13: H1H6967N (antibody, human IgG1, V domains shown)
VH: EVQLVESGGDLVHPGRSLRLSCAASGFPFDEYAMHWVRQVPGKGLEWVSGISWSNNNIGYADSVKGRFTISRDNAKNSLYLQMNSLRPEDTAFYYCAKSGIFDSWGQGTLVTVSS
VL: B12 VL with A30S, S31R, N32D, L48I, Y49H, T69A, T74I, L85V, H90Q
notes: as for B8
B14: H1H6960N (antibody, human IgG1, V domains shown)
VH: EVQLVESGGGLVKPGGSLRLSCAASGITFSSYSMNWVRQAPGKGLEWVSSISTRSSLIHYADSVKGRFTISRDNAKNSLYLQMNSLRDEDTAVYYCARWDAAAAFDYWGQGTLVIVSS
VL: DIQLTQSPSFLSASVGDRVTITCWASQGISSYLAWYQQKPGKAPKLLIYVASTLQSGVPSRFSGSGSGTEFTLTISSLQPEDFATYFCQQLNSYPLTFGGGTKVEIK
notes: as for B8
B15: H1H6976N (antibody, human IgG1, V domains shown)
VH: EVQLLESGGGFVQPGGSLRLSCAASGFTFSSYAMSWVRQAPGKGLEWVSIISSNGRYTYYADSVKGRFTISRDNSKNTLYLQMNSLRAEDTAVYYCATVTGDWFDPWGQGTLVTVSS
VL: DIQLTQSPSFLSASVGDRVTITCWASQDIDISLAWYQQKPGKAPKLLIYAASTLQSGVPSKFSGSGSGTDFTLTISSLQPEDFSTYYCQQLNSYPITFGQGTRLDIK
notes: as for B8

Substitutions are numbered along the chain they refer to. Numbers in names are those of the source.

Consider 15 molecules from patent US20180185504A1 (Regeneron, published 2018).

This experiment concerns the target T1, mouse PRLR with an HA tag on HEK293 …. As to the kind of experiment: FACS on HEK293/mPRLR cells.
As for B1, the binding result was “no binding”. Next, B2: “no binding”. Next, B3: “no binding”; B4: “no binding”; B5: “no binding”. On to B6, for which the binding result is recorded as “no binding”.

Turning to B7, the binding result is on record as “no binding”. Take B8: the binding result was “no binding”. Regarding B9, the binding result is recorded as “no binding”. For B10, the binding result is “no binding”. For B11, the binding result is recorded as “no binding”. For the molecule B12, the binding result is given as “no binding”.

With B13, the binding result is recorded as “no binding”. For the molecule B14, the binding result is on record as “no binding”.

Consider B15, for which the binding result is “no binding”.
